Assay results taken from patent US20180250392A1 (published 2018).
Changes are numbered by the printed parent chain. Blank lines part the entries; values can stand above or below the binder they belong to.

Experiments:
[1] = molecular target: T1, murine VEGFR2 (soluble mVEGFR2) (murine, UniProt P35918 20-762); assay: Biacore, murine VEGFR2
T1 construct: also called mouse VEGFR2

[2] = molecular target: rat VEGFR2 (rat, UniProt O08775 20-760, limits assumed); assay: Biacore, rat VEGFR2
[3] = molecular target: T2, human VEGFR2 (soluble hVEGFR2) (human, UniProt P35968 20-764); assay: Biacore, human VEGFR2
T2 construct: also called KDR
T2 sequence (P35968 20-764 limits assumed): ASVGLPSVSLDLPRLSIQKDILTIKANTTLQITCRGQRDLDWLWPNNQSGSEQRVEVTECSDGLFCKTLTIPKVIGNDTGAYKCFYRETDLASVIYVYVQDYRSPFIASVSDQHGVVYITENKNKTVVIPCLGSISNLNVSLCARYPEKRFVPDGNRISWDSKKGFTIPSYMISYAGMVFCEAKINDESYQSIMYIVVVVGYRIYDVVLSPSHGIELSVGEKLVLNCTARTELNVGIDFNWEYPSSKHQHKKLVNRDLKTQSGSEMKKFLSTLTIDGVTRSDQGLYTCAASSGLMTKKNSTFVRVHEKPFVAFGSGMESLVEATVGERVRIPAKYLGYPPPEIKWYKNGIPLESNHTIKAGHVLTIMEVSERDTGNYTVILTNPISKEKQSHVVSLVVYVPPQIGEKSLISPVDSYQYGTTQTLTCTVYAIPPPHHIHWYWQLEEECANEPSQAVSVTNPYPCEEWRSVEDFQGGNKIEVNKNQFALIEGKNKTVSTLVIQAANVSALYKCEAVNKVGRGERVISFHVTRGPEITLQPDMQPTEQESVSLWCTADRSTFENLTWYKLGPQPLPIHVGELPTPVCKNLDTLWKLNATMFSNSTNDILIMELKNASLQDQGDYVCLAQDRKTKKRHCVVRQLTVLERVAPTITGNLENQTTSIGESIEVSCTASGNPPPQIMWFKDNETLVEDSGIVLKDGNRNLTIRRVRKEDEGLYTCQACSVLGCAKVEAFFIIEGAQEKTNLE

Chain of rat VEGFR2 (O08775 20-760 limits assumed): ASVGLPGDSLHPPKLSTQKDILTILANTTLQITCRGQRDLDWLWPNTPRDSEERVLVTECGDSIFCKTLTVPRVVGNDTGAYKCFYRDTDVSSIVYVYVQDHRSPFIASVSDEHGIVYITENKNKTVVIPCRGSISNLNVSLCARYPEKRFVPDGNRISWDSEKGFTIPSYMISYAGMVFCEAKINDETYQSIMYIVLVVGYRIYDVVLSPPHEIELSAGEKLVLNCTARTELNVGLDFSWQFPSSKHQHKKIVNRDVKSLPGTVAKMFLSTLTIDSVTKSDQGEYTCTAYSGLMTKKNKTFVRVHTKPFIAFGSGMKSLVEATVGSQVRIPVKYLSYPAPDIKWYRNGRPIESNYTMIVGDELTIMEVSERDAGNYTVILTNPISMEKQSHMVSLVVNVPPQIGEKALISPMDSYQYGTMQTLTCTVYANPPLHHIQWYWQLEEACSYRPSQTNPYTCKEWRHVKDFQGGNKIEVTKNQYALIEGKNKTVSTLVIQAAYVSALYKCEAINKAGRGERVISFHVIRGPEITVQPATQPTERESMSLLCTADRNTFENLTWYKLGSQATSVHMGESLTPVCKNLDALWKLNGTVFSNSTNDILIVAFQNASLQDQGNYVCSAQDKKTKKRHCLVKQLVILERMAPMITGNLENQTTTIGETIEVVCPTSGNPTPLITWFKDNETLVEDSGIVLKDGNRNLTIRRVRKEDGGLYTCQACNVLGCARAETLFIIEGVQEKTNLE
T1 sequence (P35918 20-762 limits assumed): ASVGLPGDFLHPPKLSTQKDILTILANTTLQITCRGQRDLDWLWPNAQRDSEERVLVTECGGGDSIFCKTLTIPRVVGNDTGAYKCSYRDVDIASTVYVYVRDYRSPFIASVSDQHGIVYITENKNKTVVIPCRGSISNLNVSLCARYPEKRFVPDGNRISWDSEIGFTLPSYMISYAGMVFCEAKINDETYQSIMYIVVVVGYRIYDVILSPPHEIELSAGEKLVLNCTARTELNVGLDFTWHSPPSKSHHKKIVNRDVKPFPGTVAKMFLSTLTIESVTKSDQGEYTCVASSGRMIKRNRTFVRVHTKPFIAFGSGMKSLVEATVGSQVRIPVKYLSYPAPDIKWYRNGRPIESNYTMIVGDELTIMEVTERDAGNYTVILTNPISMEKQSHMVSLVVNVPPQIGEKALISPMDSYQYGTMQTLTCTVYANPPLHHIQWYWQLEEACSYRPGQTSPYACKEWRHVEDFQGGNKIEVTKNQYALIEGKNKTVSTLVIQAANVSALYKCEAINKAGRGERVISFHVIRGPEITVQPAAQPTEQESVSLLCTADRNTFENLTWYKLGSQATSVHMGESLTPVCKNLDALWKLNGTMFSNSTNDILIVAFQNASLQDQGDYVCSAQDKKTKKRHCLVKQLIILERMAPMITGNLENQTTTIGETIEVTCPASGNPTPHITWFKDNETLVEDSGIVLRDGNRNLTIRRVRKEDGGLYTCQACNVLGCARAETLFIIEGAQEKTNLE

koff [1]: 0.00181 s⁻¹ | kon [1]: 22900 M⁻¹ s⁻¹ | koff [2]: 0.00143 s⁻¹ | kon [2]: 33200 M⁻¹ s⁻¹ | koff [3]: 0.000659 s⁻¹ | kon [3]: 86200 M⁻¹ s⁻¹
B1: Mab 149 (B1C4_E5) (antibody, V domains shown)
VH: EVQLLESGGGLVQPGGSLRLSCAASGFTFSWYVMGWVRQAPGKGLEWVSSIYPSGGATNYADSVKGRFTISRDNSKNTLYLQMNSLRAEDTAVYYCARGNYLDYWGQGTLVTVSS
VL: DIQMTQSPGTLSLSPGEGATLSCRASQSVSSNYFGWYQQKPGQAPRLLIYGASSRATGIPDRFSGSGSGTDFTLTISRLEPEDSAVYYCQQFDSSPLSFGGGTKVEIKR

koff [1]: 0.00128 s⁻¹ | kon [1]: 43800 M⁻¹ s⁻¹ | koff [2]: 0.000899 s⁻¹ | kon [2]: 64500 M⁻¹ s⁻¹ | koff [3]: 0.000282 s⁻¹ | kon [3]: 113000 M⁻¹ s⁻¹
B2: Mab 147 (B1C4_A7) (antibody, V domains shown)
VH: B1 VH with S54Q, N59S, L102F
VL: B1 VL with S95L, S98T
